Source: publication PMC3078890, “Sponge non-metastatic Group I Nme gene/protein - structure and function is conserved from sponges to humans” (BMC Evolutionary Biology, 2011)

Molecular target: the molecule itself
Experiment: cross-linking; 8 ug protein in PBS at room temperature, 25 mM glutaraldehyde for 5 min, quenched with 0.2 M Tris-HCl pH 7.5; 12.5% SDS-PAGE, Coomassie staining

B1: sponge NmeGp1Sd protein (Suberites domuncula Group I Nme), recombinant (natural protein, UniProt Q5DIW9 1-151, looked up)
chain: MTTERTYIMIKPDGVQRGLMGDIIKRFEQKGFKMVAMKFMQPSEKLLSEHYADLSKKPFFPGLVKFMATSPVCCMVWEGQGAVATGRQMLGETDPAKSKPGTIRGDFCIHIGRNICHGSDSVESANKEIALWFKPEELVDWTPTEQQWIYE
notes: NmeGp1Sd (formerly Nm23-SD1), Group I Nme / nucleoside diphosphate kinase of the marine sponge Suberites domuncula; cDNA cloned into pET15b (NdeI/BamHI) with primers from the ATG start codon to the stop codon; Cloned downstream of the thrombin site of pET15b; residues of the vector may remain at the N-terminus after cleavage; also called Nm23-SD1; not shown: His6, N-terminal, cleaved
For B1, which “stoichiometry N” value is on record?
The value was 6.
